# Results as given in PMC2120956.
# Columns and labels:
# [1] = target: embryonic myosin isolated from primary culture myotubes (chicken) (UniProt P02565)
# [2] = target: embryonic breast muscle myosin isolated from d15 chick embryos (chicken) (UniProt P02565)
substance,measurement,setting,value
F-actin (from UniProt P68139 1-377) (natural protein),"actin filament velocity, in vitro motility assay",[1],3.1 um/s
same,"actin filament velocity, in vitro motility assay",[2],3.8 um/s
